± gives the standard deviation of the averaged measurements.
B1: library; a variant is named by its letters at N, in order (parent)
chain: GCUGUCACCGGUGUAUUACCCUAGUGGUCGACCGGUCUGAUGAGUCUNNNNNNAGACGAAACAGC

Legend:
hypoxanthine [1] = variants of: B1; assay: normalized RNA/DNA level with ligand (relative to sTRSVctl = 100) (log10 (% of sTRSVctl)); ligand: hypoxanthine (xanthine aptamer); higher = less ribozyme self-cleavage, higher mRNA level; conditions: ligand concentration (+) RNA-Seq: 5 mM, HEK293T, reporter: mCherry (pCS4076), ligand present: yes
Procedure, shortened: (§1)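 For each 6-well well, 4 µg of library plasmid encoding mCherry-linked ribozyme switches, or eGFP-linked ones in some ligand experiments, was transfected into HEK293T. Any ligand was added 1 h before transfection, and RNA was extracted with EDTA 72 h after it, then reverse-transcribed, amplified, barcoded and sequenced. RNA level was obtained by dividing RNA reads by DNA reads, normalizing to a spiked-in non-cleaving sequence or to the top sequences, then scaling and log-transforming. The top set was 25 sequences, scaling was ×100 with log10, and ≥100 DNA reads were required.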

hypoxanthine [2] = variants of: B1; assay: normalized RNA/DNA level without ligand (relative to sTRSVctl = 100) (log10 (% of sTRSVctl)); ligand: hypoxanthine (xanthine aptamer); higher = less ribozyme self-cleavage, higher mRNA level; conditions: HEK293T, reporter: mCherry (pCS4076), ligand present: no
Procedure, shortened: as §1

| Variant | normalized RNA/DNA level with ligand (log10) (hypoxanthine [1]) | normalized RNA/DNA level without ligand (log10) (hypoxanthine [2]) |
| --- | --- | --- |
| GCUGUCACCGGUGUAUUACCCUAGUGGUCGACCGGUCUGAUGAGUCUUGGCCAAGACGAAACAGC | 1.97 ± 0.033 | 1.92 ± 0.046 |
| GCUGUCACCGGUGUAUUACCCUAGUGGUCGACCGGUCUGAUGAGUCUCGGCCCAGACGAAACAGC | 1.979 ± 0.011 | 2.012 ± 0.0089 |
| GCUGUCACCGGUGUAUUACCCUAGUGGUCGACCGGUCUGAUGAGUCUGGGCCCAGACGAAACAGC | 1.95 ± 0.02 | 1.98 ± 0.029 |
| GCUGUCACCGGUGUAUUACCCUAGUGGUCGACCGGUCUGAUGAGUCUUGGCCCAGACGAAACAGC | 2.02 ± 0.022 | 1.99 ± 0.044 |
| GCUGUCACCGGUGUAUUACCCUAGUGGUCGACCGGUCUGAUGAGUCUAGGCCCAGACGAAACAGC | 1.99 ± 0.038 | 1.95 ± 0.044 |
| GCUGUCACCGGUGUAUUACCCUAGUGGUCGACCGGUCUGAUGAGUCUUGGCCGAGACGAAACAGC | 2.015 ± 0.00026 | 1.956 ± 0.006 |
| GCUGUCACCGGUGUAUUACCCUAGUGGUCGACCGGUCUGAUGAGUCUCGGCCUAGACGAAACAGC | 2.03 ± 0.021 | 1.93 ± 0.027 |
| GCUGUCACCGGUGUAUUACCCUAGUGGUCGACCGGUCUGAUGAGUCUGGGCCUAGACGAAACAGC | 2.06 ± 0.045 | 2.014 ± 0.0022 |
| GCUGUCACCGGUGUAUUACCCUAGUGGUCGACCGGUCUGAUGAGUCUUGGCCUAGACGAAACAGC | 1.98 ± 0.043 | 2.008 ± 0.0053 |
| GCUGUCACCGGUGUAUUACCCUAGUGGUCGACCGGUCUGAUGAGUCUCGGCGAAGACGAAACAGC | 1.95 ± 0.029 | 1.743 ± 0.017 |
| GCUGUCACCGGUGUAUUACCCUAGUGGUCGACCGGUCUGAUGAGUCUGGGCGAAGACGAAACAGC | 1.99 ± 0.057 | 1.88 ± 0.038 |
| GCUGUCACCGGUGUAUUACCCUAGUGGUCGACCGGUCUGAUGAGUCUAGGCGAAGACGAAACAGC | 1.92 ± 0.066 | 1.557 ± 0.0027 |
| GCUGUCACCGGUGUAUUACCCUAGUGGUCGACCGGUCUGAUGAGUCUCGGCGCAGACGAAACAGC | 2.005 ± 0.013 | 1.93 ± 0.064 |
| GCUGUCACCGGUGUAUUACCCUAGUGGUCGACCGGUCUGAUGAGUCUGGGCGCAGACGAAACAGC | 1.929 ± 0.013 | 1.7 ± 0.032 |
| GCUGUCACCGGUGUAUUACCCUAGUGGUCGACCGGUCUGAUGAGUCUUGGCGCAGACGAAACAGC | 2 ± 0.04 | 2 ± 0.027 |
| GCUGUCACCGGUGUAUUACCCUAGUGGUCGACCGGUCUGAUGAGUCUAGGCGCAGACGAAACAGC | 1.962 ± 0.0082 | 1.87 ± 0.031 |
| GCUGUCACCGGUGUAUUACCCUAGUGGUCGACCGGUCUGAUGAGUCUCGGCGGAGACGAAACAGC | 1.889 ± 0.0076 | 1.48 ± 0.11 |
| GCUGUCACCGGUGUAUUACCCUAGUGGUCGACCGGUCUGAUGAGUCUUGGCGGAGACGAAACAGC | 1.97 ± 0.14 | 1.69 ± 0.024 |
| GCUGUCACCGGUGUAUUACCCUAGUGGUCGACCGGUCUGAUGAGUCUCGGCGUAGACGAAACAGC | 1.929 ± 0.017 | 1.91 ± 0.06 |
| GCUGUCACCGGUGUAUUACCCUAGUGGUCGACCGGUCUGAUGAGUCUGGGCGUAGACGAAACAGC | 2 ± 0.0057 | 1.96 ± 0.049 |
| GCUGUCACCGGUGUAUUACCCUAGUGGUCGACCGGUCUGAUGAGUCUUGGCGUAGACGAAACAGC | 1.961 ± 0.015 | 1.68 ± 0.064 |

| Variant | normalized RNA/DNA level with ligand (log10) (hypoxanthine [1]) | normalized RNA/DNA level without ligand (log10) (hypoxanthine [2]) |
| --- | --- | --- |
| GCUGUCACCGGUGUAUUACCCUAGUGGUCGACCGGUCUGAUGAGUCUCGGCUAAGACGAAACAGC | 1.935 ± 0.017 | 1.67 ± 0.031 |
| GCUGUCACCGGUGUAUUACCCUAGUGGUCGACCGGUCUGAUGAGUCUUGGCUAAGACGAAACAGC | 2.009 ± 0.006 | 1.942 ± 0.011 |
| GCUGUCACCGGUGUAUUACCCUAGUGGUCGACCGGUCUGAUGAGUCUCGGCUCAGACGAAACAGC | 2.04 ± 0.061 | 2.037 ± 0.017 |
| GCUGUCACCGGUGUAUUACCCUAGUGGUCGACCGGUCUGAUGAGUCUGGGCUCAGACGAAACAGC | 1.9567 ± 0.00028 | 2 ± 0.093 |
| GCUGUCACCGGUGUAUUACCCUAGUGGUCGACCGGUCUGAUGAGUCUUGGCUCAGACGAAACAGC | 2.02 ± 0.051 | 2 ± 0.021 |
| GCUGUCACCGGUGUAUUACCCUAGUGGUCGACCGGUCUGAUGAGUCUAGGCUCAGACGAAACAGC | 2.02 ± 0.024 | 2.01 ± 0.055 |
| GCUGUCACCGGUGUAUUACCCUAGUGGUCGACCGGUCUGAUGAGUCUCGGCUGAGACGAAACAGC | 1.97 ± 0.037 | 1.889 ± 0.0029 |
| GCUGUCACCGGUGUAUUACCCUAGUGGUCGACCGGUCUGAUGAGUCUCGGCUUAGACGAAACAGC | 2.05 ± 0.038 | 1.93 ± 0.02 |
| GCUGUCACCGGUGUAUUACCCUAGUGGUCGACCGGUCUGAUGAGUCUGGGCUUAGACGAAACAGC | 1.98 ± 0.069 | 1.96 ± 0.029 |
| GCUGUCACCGGUGUAUUACCCUAGUGGUCGACCGGUCUGAUGAGUCUAGGCUUAGACGAAACAGC | 1.968 ± 0.014 | 1.89 ± 0.043 |
| GCUGUCACCGGUGUAUUACCCUAGUGGUCGACCGGUCUGAUGAGUCUCGGGAAAGACGAAACAGC | 1.85 ± 0.029 | 1.53 ± 0.046 |
| GCUGUCACCGGUGUAUUACCCUAGUGGUCGACCGGUCUGAUGAGUCUUGGGAAAGACGAAACAGC | 1.86 ± 0.054 | 1.64 ± 0.036 |
| GCUGUCACCGGUGUAUUACCCUAGUGGUCGACCGGUCUGAUGAGUCUCGGGACAGACGAAACAGC | 1.96 ± 0.078 | 1.726 ± 0.0062 |
| GCUGUCACCGGUGUAUUACCCUAGUGGUCGACCGGUCUGAUGAGUCUGGGGACAGACGAAACAGC | 1.91 ± 0.068 | 1.613 ± 0.0032 |
| GCUGUCACCGGUGUAUUACCCUAGUGGUCGACCGGUCUGAUGAGUCUUGGGACAGACGAAACAGC | 1.897 ± 0.018 | 1.83 ± 0.044 |
| GCUGUCACCGGUGUAUUACCCUAGUGGUCGACCGGUCUGAUGAGUCUCGGGAGAGACGAAACAGC | 1.87 ± 0.04 | 1.63 ± 0.021 |
| GCUGUCACCGGUGUAUUACCCUAGUGGUCGACCGGUCUGAUGAGUCUUGGGAGAGACGAAACAGC | 1.9 ± 0.054 | 1.55 ± 0.044 |
| GCUGUCACCGGUGUAUUACCCUAGUGGUCGACCGGUCUGAUGAGUCUCGGGAUAGACGAAACAGC | 1.94 ± 0.064 | 1.608 ± 0.016 |
| GCUGUCACCGGUGUAUUACCCUAGUGGUCGACCGGUCUGAUGAGUCUGGGGAUAGACGAAACAGC | 1.895 ± 0.015 | 1.749 ± 0.0068 |
| GCUGUCACCGGUGUAUUACCCUAGUGGUCGACCGGUCUGAUGAGUCUUGGGAUAGACGAAACAGC | 1.938 ± 0.014 | 1.71 ± 0.02 |
| GCUGUCACCGGUGUAUUACCCUAGUGGUCGACCGGUCUGAUGAGUCUAGGGAUAGACGAAACAGC | 1.89 ± 0.051 | 1.713 ± 0.0045 |
